The values below are quoted from earlier work in article PMC3121883.

One may read the Kd as a measure of binding affinity in units of concentration.

The target of data set [1] is Connexin43 C-terminal peptide (UniProt P17302). The data set can be described thus: fluorescence.
For data set [2] the target is unchanged. The data set can be described thus: fluorescence. The source holds these as a separate data set.

Where two headings read alike, the source gives them in different places. Bounds are passed on as bounds.

Sequence of UniProt P17302 (P17302 whole entry, looked up, tested part not stated): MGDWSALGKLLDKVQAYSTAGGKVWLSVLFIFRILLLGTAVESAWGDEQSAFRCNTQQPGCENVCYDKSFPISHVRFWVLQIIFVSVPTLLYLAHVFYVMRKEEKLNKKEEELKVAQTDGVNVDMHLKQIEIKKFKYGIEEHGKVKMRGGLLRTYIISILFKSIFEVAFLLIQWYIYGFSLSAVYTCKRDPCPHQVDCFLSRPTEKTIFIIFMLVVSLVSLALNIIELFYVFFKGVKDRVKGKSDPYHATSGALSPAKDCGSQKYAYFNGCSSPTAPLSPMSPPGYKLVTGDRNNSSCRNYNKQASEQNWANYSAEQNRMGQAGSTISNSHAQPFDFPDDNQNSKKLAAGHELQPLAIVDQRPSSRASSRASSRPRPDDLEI

As to ZO-1 PDZ2 (from UniProt Q07157), the dissociation constant Kd in data set [1] was above 100 µM; in data set [2], 7.2 µM.
